# B1: mAb1512 (antibody, V domains shown)
# VH: KVQLVQSGGGVVQPGRSQRLSCAASGLTLSEYAMHWVRQAPGKGLEWVAVILSDGTKKEYADSVKGRFTISRDNSKNTLYLQMNSLRAEDTAVYYCATDDNILGHCRSKSCQRNYYHGMDVWGQGTTVSVSS
# VL: DIVMTQSPLSLPVTPGEPASISCRSSQSLLHSNGKNYLDWYLQKPGQSPQLLIYLGSDRASGVPDRFSGSGSGTDFTLSISRVEAEDVGVYYCMQALQTPFTFGPGTKVDIK
# notes: variable region as the heavy chain of m5 (PDB 7RXP); as the light chain of m5 (PDB 7RXP); IgG (captured by anti-human Fc); source: 293F cells, purified (Protein G Sepharose)
# B2: mAb236 (antibody, V domains shown)
# VH: EVQLVESGGGLVQPGGSLRLSCVASGFNFTTYSMNWVRQAPGKGLEWVSYISSHSNLIYYATSVKGRFTISRDNAKNSLYLQMNSLRAEDTALYYCARGGSLHPSAGADWIDPWGQGTLVTVSS
# VL: SYELTQAPSVSVSPGQTATITCSGDKLGDKFTSWYQQKPGQSPVLVIYQDSKRPSGIPERFSASNSGNTATLTISGTRAMDEADYYCQAWDSNTYVFGTGTRVAVL
# notes: variable region as the heavy chain of m2 (PDB 7RXJ); as the light chain of m2 (PDB 7RXJ); IgG (captured by anti-human Fc); source: 293F cells, purified (Protein G Sepharose)
# B3: mAb352 (antibody, V domains shown)
# VH: EVQLVESGGGLVKPGGSLRLSCAASGFSFSEYRMNWVRQAPGKGLEWVSFISSSGTYIDYADSVKGRFTISRDNVNNSLYLQMNNLRAGDTAVYYCARGMGIAVRRFDYWGQGTLVSVSS
# VL: SYVLTQPPSVSVAPGQTAKITCGGNNIGSESVHWYQQKPGQAPVLVVYDDAVRPSGIPERFSGSNSRNTATLTISRVEAGDEAAYYCQVWDSSTVASFGGGTKLTVL
# notes: variable region as the heavy chain of m3 (PDB 7S0X); as the light chain of m3 (PDB 7S0X); IgG (captured by anti-human Fc); source: 293F cells, purified (Protein G Sepharose)
# B4: mAb234 (antibody, V domains shown)
# VH: EVQLVESGGGLVKPGGSLRLSCAASGFNFSTHIMNWVRQAPGKGLEWVSSISSSGTYIYYADSMKGRFTISRDNPKNSLYLQMNSLRAEDTAVYYCARARGFIQFHYYMDVWGKGTTVAVSS
# VL: SYVLTQPPSVSVAPGKTARITCGGNNIGSKSVHWHQQRPGQAPVLVVYDDKIRPSGIPERFSGSNSGNTATLIISRVEAGDEADYYCQVWHSSSDPVVFGGGTKLTVL
# notes: variable region as the heavy chain of m1 (PDB 7RXI); as the light chain of m1 (PDB 7RXI); IgG (captured by anti-human Fc); source: 293F cells, purified (Protein G Sepharose)
# B5: Fab1512 (Fab, V domains shown)
# VH: B1 VH
# VL: B1 VL
# notes: heavy chain of Fab1512 (23-amino-acid CDR H3); light chain of Fab1512; From an RTS,S/AS01 vaccinee; beta-ctCSP class; source: ExpiCHO cells, purified (HiTrap Protein G HP, size exclusion chromatography)
# B6: Fab1488 (Fab, V domains shown)
# VH: EVHLVESGGGLVKPGGSLRLSCAASGFTFSSYTMNWVRQAPGKGLEWVSSISSSSTYIYYADSVRGRFTISRDNAKNSLYLQMNSLRAEDSAVYYCARRAGGFDAYYFDYWGQGTLVTVSS
# VL: not shown
# notes: heavy chain of Fab1488; light chain of Fab1488; From an RTS,S/AS01 vaccinee; alpha-ctCSP class (IGHV3-21 or IGHV3-48 with IGLV3-21 or IGLV3-1); source: ExpiCHO cells, purified (HiTrap Protein G HP, size exclusion chromatography)
# B7: Fab236 (Fab, V domains shown)
# VH: B2 VH
# VL: B2 VL
# notes: heavy chain of Fab236; light chain of Fab236; From an RTS,S/AS01 vaccinee; alpha-ctCSP class (IGHV3-21 or IGHV3-48 with IGLV3-21 or IGLV3-1); source: ExpiCHO cells, purified (HiTrap Protein G HP, size exclusion chromatography)
# B8: Fab352 (Fab, V domains shown)
# VH: B3 VH
# VL: B3 VL
# notes: heavy chain of Fab352; light chain of Fab352; From an RTS,S/AS01 vaccinee; alpha-ctCSP class (IGHV3-21 or IGHV3-48 with IGLV3-21 or IGLV3-1); source: ExpiCHO cells, purified (HiTrap Protein G HP, size exclusion chromatography)
# B9: Fab234 (Fab, V domains shown)
# VH: B4 VH
# VL: B4 VL
# notes: heavy chain of Fab234; light chain of Fab234; From an RTS,S/AS01 vaccinee; alpha-ctCSP class (IGHV3-21 or IGHV3-48 with IGLV3-21 or IGLV3-1); source: ExpiCHO cells, purified (HiTrap Protein G HP, size exclusion chromatography)
# Target: T1, biotinylated ctCSP Pf16 peptide (residues 283–375 of P. falciparum 3D7 CSP) (Plasmodium falciparum 3D7, UniProt Q7K740, biotin (position not given))
# T1 construct: circumsporozoite protein (CSP), P. falciparum 3D7, residues 283-375 (C-terminal domain); the results say biotinylated ctCSP (283-375); also called Pf16 C-term peptide; source: made by Biomatik (Wilmington, Delaware)
# Assay: ELISA; expressed mAbs screened for reactivity to Pf16 C-term peptide, as previously described [36]
# Conditions: both partners purified
# T1 sequence (Q7K740 283-375): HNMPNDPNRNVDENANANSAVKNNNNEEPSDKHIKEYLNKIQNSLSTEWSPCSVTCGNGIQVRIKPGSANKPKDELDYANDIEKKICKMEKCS
row,Binder,binding result
1,B1,binds
2,B2,binds
3,B3,binds
4,B4,binds

# Target: T2, αTSR domain or ctCSP (residues 310–375 of P. falciparum 3D7 CSP) (Plasmodium falciparum 3D7, UniProt Q7K740)
# T2 construct: circumsporozoite protein (CSP), P. falciparum 3D7, residues 310-375 (αTSR domain), followed by a 6xHis tag; pET28a; also called 3D7 peptide; source: E. coli SHUFFLE, purified (Ni cOmplete resin, gel filtration on Superdex 200)
# Assay: crystal structure; Fab mixed with ctCSP (310-375) in a 2:1 molar ratio, complex purified by size exclusion chromatography, sitting drop vapor diffusion at 20°C
# Conditions: both partners purified
# T2 sequence (Q7K740 310-375): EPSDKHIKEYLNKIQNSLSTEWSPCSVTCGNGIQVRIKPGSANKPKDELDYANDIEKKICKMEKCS
row,Binder,binding result
1,B5,binds
2,B6,binds
3,B7,binds
4,B8,binds
5,B9,binds

# — paper PMC8989322 (PLoS Pathogens, 2022)
